Assay results from patent US20060287509A1 (University of California, published 2006).
Numbering of substitutions follows the chain as printed.

B1: C6ML3-9 (scFv)
scFv: QVQLLQSGAELKKPGESLKISCKGSGYSFTSYWIAWVRQMPGKGLEYMGLIYPGDSDTKYSPSFQGQVTISVDKSVSTAYLQWSSLKPSDSAVYFCARHDVGYCSSSNCAKWPEYFQHWGQGTLVTVSSGGGGSGGGGSGGGGSQSVLTQPPSVSAAPGQKVTISCSGSSSNIGNNYVSWYQQLPGTAPKLLIYGHTNRPAGVPDRFSGSKSGTSASLAISGFRSEDEADYYCASWDYTLSGWVFGGGTKLTVLG
notes: C6.5 with this VL CDR3; C-terminal myc and His6 tags; parent of the VH CDR3 libraries; also called C6ML3-9 (wt); wt C6ML3-9
B2: C6MH3-B1 (scFv)
scFv: B1 scFv with S105T, S106D, S107R, N108T
notes: C6ML3-9 with this VH CDR3; C-terminal His6; also called C6MNH3-B1
B3: C6ML3-5 (scFv)
scFv: B1 scFv with S235A, T239S
notes: C6.5 with this VL CDR3; C-terminal myc and His6 tags

Legend:
[1] = molecular target: T1, c-erbB-2 ECD with a Ser-Gly-His6 C-terminal fusion (UniProt P04626 23-652); test: SPR (BIAcore)
T1 construct: extracellular domain; expressed from CHO cells, IMAC purified; coupled to a CM5 chip, adsorbed to polystyrene, or biotinylated and captured on avidin; also called c-erbB-2 extracellular domain; biotinylated c-erbB-2 ECD

[2] = molecular target: T1, c-erbB-2 ECD with a Ser-Gly-His6 …; test: SPR (BIAcore); remark: listed apart in the source
[3] = molecular target: T2, c-erbB-2 expressed on cells (SK-OV-3, SK-BR-3) (UniProt P04626 23-1255, limits assumed); test: FACS, biotinylated sFv on SK-OV-3 cells
T2 construct: whole, on cells; also called native c-erbB-2 expressed on cells

[4] = molecular target: T1, c-erbB-2 ECD with a Ser-Gly-His6 …; test: SPR (BIAcore); clone eluted with 1 µM c-erbB-2 ECD

Row | Binder | fold increase in affinity vs wild-type sFv (C6.5) [1] [fold] | kon [2] [M⁻¹ s⁻¹] | half life (t1/2) on the cell surface [3] [min] | koff [4] [s⁻¹]
1 | B1 | 16 | 610000 | 11 | –
2 | B2 | – | – | 102 | –
3 | B3 | – | 590000 | – | 0.0019
